# “Also recorded” adds a separate entry of the source. Ends that are not written are not given here.
# Legend:
# [1] = molecular target: T1, α4β7 integrin on CD8+ T-cells (Homo sapiens, UniProt P13612+P26010); assay: Flow cytometry: gp120 binding to RA-cultured CD8+ T-cells; conditions: peptide at 0.19 μM-12.5 μM (FIG. 8a)
# T1 construct: Purified CD4+ T cells and NK cells were obtained by negative selection using magnetic beads; On NKs β7 integrin pairs with α4 integrin (CD49d); endogenous in cells; host or cells: freshly isolated NK cells; OKT3/IL2/retinoic acid-cultured PBMCs (CD8-depleted, i.e. CD4+ T cells) and CD8+ T cells from healthy donors
# T1 sequence (P13612 34-1032): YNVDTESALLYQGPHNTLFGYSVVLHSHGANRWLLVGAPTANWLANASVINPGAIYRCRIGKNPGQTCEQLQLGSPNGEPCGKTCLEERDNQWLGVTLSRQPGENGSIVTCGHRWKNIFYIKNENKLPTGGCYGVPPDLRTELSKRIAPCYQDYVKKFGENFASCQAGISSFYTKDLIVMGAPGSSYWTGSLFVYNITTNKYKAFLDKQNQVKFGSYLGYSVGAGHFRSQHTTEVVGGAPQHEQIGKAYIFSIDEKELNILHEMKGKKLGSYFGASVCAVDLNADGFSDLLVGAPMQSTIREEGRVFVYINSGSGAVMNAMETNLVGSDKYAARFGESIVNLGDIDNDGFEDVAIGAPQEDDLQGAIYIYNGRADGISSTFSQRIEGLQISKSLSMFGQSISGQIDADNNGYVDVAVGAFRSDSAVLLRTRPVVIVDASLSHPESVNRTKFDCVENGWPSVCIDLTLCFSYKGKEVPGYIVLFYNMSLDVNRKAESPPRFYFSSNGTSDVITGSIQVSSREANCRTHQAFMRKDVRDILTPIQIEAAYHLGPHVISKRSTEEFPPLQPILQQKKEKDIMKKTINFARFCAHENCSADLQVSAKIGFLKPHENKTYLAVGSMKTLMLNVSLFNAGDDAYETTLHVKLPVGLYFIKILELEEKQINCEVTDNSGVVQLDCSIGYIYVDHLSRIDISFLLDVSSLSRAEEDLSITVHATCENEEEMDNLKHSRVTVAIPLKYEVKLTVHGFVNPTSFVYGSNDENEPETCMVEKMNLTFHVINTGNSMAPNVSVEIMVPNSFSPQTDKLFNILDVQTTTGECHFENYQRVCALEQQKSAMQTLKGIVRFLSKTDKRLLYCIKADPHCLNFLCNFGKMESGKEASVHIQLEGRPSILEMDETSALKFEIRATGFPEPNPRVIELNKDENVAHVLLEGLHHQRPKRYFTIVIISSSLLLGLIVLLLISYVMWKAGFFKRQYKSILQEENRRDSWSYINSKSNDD
# T1 sequence (P26010 20-798): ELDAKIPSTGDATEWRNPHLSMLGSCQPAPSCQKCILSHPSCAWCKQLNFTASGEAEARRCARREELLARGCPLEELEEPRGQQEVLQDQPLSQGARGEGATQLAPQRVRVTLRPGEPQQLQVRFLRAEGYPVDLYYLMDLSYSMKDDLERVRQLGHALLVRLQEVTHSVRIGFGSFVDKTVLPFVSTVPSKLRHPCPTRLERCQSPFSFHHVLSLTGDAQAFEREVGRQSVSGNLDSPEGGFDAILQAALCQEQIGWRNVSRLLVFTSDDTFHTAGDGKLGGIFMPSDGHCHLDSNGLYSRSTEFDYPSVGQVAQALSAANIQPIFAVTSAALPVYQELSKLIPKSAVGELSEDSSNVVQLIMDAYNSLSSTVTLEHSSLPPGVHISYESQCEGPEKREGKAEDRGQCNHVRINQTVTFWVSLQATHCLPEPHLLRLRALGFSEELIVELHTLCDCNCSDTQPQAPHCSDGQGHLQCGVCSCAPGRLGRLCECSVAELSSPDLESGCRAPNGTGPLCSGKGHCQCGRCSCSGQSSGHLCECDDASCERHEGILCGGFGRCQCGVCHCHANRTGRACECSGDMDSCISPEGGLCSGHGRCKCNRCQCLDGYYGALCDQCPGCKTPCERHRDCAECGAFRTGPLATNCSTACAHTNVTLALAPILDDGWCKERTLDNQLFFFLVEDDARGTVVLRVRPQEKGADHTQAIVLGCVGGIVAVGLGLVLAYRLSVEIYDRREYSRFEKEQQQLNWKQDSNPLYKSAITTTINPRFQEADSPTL
# Procedure: Cells and Reagents. Freshly isolated PBMCs were obtained from healthy donors and separated by Ficoll-Hypaque. Purified CD4+ T cells and NK cells were obtained by negative selection using magnetic beads (StemCell Technologies, Vancouver, BC). Cultured PBMCs were activated with OKT3, IL2 (201 U/ml) and retinoic acid (RA, 10 nM) unless otherwise specified. RA was obtained from Sigma Chemical (St. Louis, Mo.). Recombinant Ig-fusion proteins (MadCAM, VCAM-1, E-cadherin) were purchased from R&D Systems (Minneapolis, Minn.). Integrin antibodies were obtained from Serotech Laboratories Ltd. (Raleigh, N.C.) and Chemicon (Temecula, Calif.), while FITC, PE, APC surface marker antibodies were acquired from Beckton Dickinson (San Diego, Calif.). Cyclic peptides CWLDVC (SEQ ID NO:1) and the scrambled control peptide CDLWC (SEQ ID NO:31) were obtained from NeoMPS (San Diego, Calif.). Recombinant gp120s were produced and purified as described in supplemental methods, using hollow-fiber bioreactors (Fibercell Systems, Frederick, Md.). Integrin cDNA expression vectors were acquired from ORIGENE™ (ORIGENE is a trademark of OriGene Technologies, Inc., Rockville, Md.). […]
# Recombinant gp120 protein labeling. […] Biotin incorporation was determined by reacting gp120s with 4′-hydroxyazobenzene-2-carboxylic acid-avidin conjugates (HABA) per the manufacturer's instructions (Pierce Chemical, Rockford, Ill.). […]
# α4β7 integrin = molecular target: T2, α4β7 integrin (Homo sapiens, UniProt P13612+P26010); conditions: fibronectin, VCAM, MadCAM (Vanderslice et al. 1997); cited from earlier work
# T2 sequence (P13612 34-1032): T1 sequence (P13612 34-1032)
# T2 sequence (P26010 20-798): T1 sequence (P26010 20-798)
substance,measurement,setting,value
"CWLDVC (also: cyclic, kind of ring not given here)",inhibition of gp120-binding to RA cultured CD8+ T-cells by cyclic peptide,[1],inhibited by CWLDVC in a dose dependent manner
same,inhibition of binding of natural ligands to α4 / α4β7 integrin,α4β7 integrin,"inhibit α4 integrin subunit binding to fibronectin, VCAM and MadCAM; also recorded: inhibit binding of all three natural ligands"
